PMC5861439 (Nucleic Acids Research, 2017)

Molecular target: Saccharomyces cerevisiae Asf1 (2–169) (Saccharomyces cerevisiae, UniProt P32447 2-169)
Assay: ITC

Saccharomyces cerevisiae Asf1 (2–169), sequence (P32447 2-169): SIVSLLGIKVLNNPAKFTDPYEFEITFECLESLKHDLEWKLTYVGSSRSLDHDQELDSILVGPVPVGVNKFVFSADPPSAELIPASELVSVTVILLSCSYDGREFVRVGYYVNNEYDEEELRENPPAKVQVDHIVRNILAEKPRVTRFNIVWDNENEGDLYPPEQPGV

LAITMLKPRKKAKAL [Rtt109^419–433 peptide]
Kd: 7.78 ± 1.23 µM
